Residues, ends and D or L forms follow the SMILES beside them. *: point of attachment. X1 = COC(=O)[C@H]1[C@@H](OC(=O)c2ccccc2)C[C@@H]2CC[C@H]1N2CCCCC(=O)*
Assay: Limulus amebocyte lysate (LAL) chromogenic end point endotoxin assay
Conditions: same volume and concentration used for immunizations

COC(=O)[C@H]1[C@@H](OC(=O)c2ccccc2)C[C@@H]2CC[C@H]1N2CCCCC(=O)NCC(=O)NCC(=O)NCC(=O)N[C@@H](Cc1ccccc1)C(=O)N[C@@H](CCCCN)C(=O)N[C@@H](Cc1ccccc1)C(=O)N[C@@H](CCC(=O)O)C(=O)N[C@@H](Cc1ccccc1)C(=O)N[C@@H](CCCCN)C(=O)N[C@@H](Cc1ccccc1)C(=O)N[C@@H](CCC(=O)O)C(N)=O [CocKFE8] (X1-GGGFKFEFKFE-NH2)
endotoxin levels: less than 0.1 EU/mL
